Values quoted from earlier work as cited in publication PMC7277390.

Target: serum albumin (MSA) (Mus musculus) (UniProt P07724)
UniProt P07724, sequence (P07724 25-608): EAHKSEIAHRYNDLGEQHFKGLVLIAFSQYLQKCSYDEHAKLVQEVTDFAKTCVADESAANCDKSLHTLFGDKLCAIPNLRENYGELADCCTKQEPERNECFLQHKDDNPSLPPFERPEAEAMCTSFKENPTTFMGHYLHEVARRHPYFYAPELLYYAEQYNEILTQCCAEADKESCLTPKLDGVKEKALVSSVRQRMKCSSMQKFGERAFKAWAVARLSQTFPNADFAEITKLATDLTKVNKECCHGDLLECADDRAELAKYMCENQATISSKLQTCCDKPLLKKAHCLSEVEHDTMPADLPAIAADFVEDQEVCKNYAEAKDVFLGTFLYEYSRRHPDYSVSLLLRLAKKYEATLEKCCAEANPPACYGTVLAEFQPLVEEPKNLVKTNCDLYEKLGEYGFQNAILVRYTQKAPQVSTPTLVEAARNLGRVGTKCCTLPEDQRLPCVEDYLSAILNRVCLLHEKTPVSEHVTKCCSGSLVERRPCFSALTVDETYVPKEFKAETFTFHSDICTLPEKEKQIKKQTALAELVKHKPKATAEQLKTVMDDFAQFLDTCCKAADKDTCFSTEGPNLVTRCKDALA

## FcRn (from UniProt Q61559)
  Kd: 546 nM
